{"source": "patent US10869932B2", "about": "“Compositions and methods for modifying the surface of cells and methods of use” (UNIVERSITY OF UTAH RESEARCH FOUNDATION, priority 2014, dated 2020)", "biological_target": "SDF-1 (Homo sapiens, UniProt P48061)", "sequence (P48061 22-93, species assumed)": "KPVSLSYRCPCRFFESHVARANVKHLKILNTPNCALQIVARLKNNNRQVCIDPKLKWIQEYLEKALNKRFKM", "assay": "SDF-1 binding to rCXCR4 on the surface of MSCs", "type": "cell-based", "settings": "FITC-SDF-1, 30 minutes at 4° C.", "description": "FITC-labeled rSDF-1 (FITC-SDF-1) and rhodamine-labeled rCXCR4 (Rho-CXCR4) were prepared according to the manufacturer's protocol. MSCs were then modified with DMPE-PEG-Rho-CXCR4 or DMPE-PEG-CXCR4. Modified MSCs and non-modified MSCs were incubated with FITC-SDF-1 for 30 minutes of incubation at 4° C. under gentle shaking. […] In order to avoid unknown effects of rhodamine on the interaction between SDF-1 and CXCR4, FITC-SDF-1 was added to MSCs modified with DMPE-PEG-CXCR4. […] Weak SDF-1 intensity was detected on the surface of the non-modified MSCs (see FIG. 12; Control+FITC-SDF-1).\nAdditional evidence of SDF-1 binding to CXCR4 with CXCR4 detection on the surface of the MSC was achieved by the same methods as employed in the previous experiment. MSCs were modified with DMPE-PEG-CXCR4 and the modified MSCs were incubated with FITC-SDF-1.", "data": [{"substance": "DMPE-PEG-Rho-CXCR4: DMPE-PEG conjugated with rhodamine-labeled rCXCR4", "values": [{"measurement": "SDF-1 binding on the surface of modified MSCs (confocal)", "result": "FITC-SDF-1 was co-localized with CXCR4"}]}]}
